Data published in patent US20180086841A1 (Merck Sharp & Dohme, published 2018).
Where a chain is given by its changes, count along the chain named.

Legend:
Experiment in all cases: flow cytometry on CHO-K1 transfectants, left sub-column
K17A = target: T1, K17A
T1 construct: also called hCD27 K17A
T1 receptor chain: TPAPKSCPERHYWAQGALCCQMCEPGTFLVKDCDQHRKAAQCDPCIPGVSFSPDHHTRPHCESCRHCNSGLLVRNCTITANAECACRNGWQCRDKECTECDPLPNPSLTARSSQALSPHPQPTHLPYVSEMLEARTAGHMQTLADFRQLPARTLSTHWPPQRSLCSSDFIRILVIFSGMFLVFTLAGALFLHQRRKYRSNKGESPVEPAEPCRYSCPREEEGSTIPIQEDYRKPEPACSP
Protocol: (§1) The hCD27 variants that were tested are listed. Amino acids correspond to the UniProt P26842-1 sequence. Amino acids 1-20 constitute the signal peptide. Binding is expressed as the geometric mean of the FITC signal, relative to antibody binding to hCD27, which was set at 100%.
(§2) The ability of several anti-hCD27 antibodies to bind to a series of hCD27 alanine mutants was determined using CHO-K1 cells, transiently transfected pCI-neo empty vector, pCI-neo.hCD27 and several pCI-neo.CD27Ala mutant constructs.
(§3) Detached cells were transferred to 96 wells round-bottomed well plates at approximately 1.2×10⁵ cells/well. After spinning down the cells, discarding the supernatants and re-suspending the cells in the residual volume, the primary antibodies were added and incubated for 30 minutes at 4° C. Cells were washed three times with DPBS/BSA 1%, followed by centrifugation, discarding of the supernatants and re-suspension in the residual volume. […] After washing once, antibody binding was detected using the HTS plate reader (FACS Canto II) and FlowJo software for data analysis. Debris, dead cells and doublets were excluded from the analysis. Binding was expressed as the geometric mean of the FITC signal, relative to antibody binding to hCD27, which was set at 100%.

R10A = target: T2, R10A
T2 construct: also called hCD27 R10A
T2 receptor chain: T1 receptor chain with R10A, A17K
Protocol: as §1, §2, §3

H60A = target: T3, H60A
T3 construct: also called hCD27 H60A
T3 receptor chain: T1 receptor chain with A17K, H60A
Protocol: as §1, §2, §3

Q91A = target: T4, Q91A
T4 construct: also called hCD27 Q91A
T4 receptor chain: T1 receptor chain with A17K, Q91A
Protocol: as §1, §2, §3

Q15A = target: T5, Q15A
T5 construct: also called hCD27 Q15A
T5 receptor chain: T1 receptor chain with Q15A, A17K
Protocol: as §1, §2, §3

P44A = target: T6, P44A
T6 construct: also called hCD27 P44A
T6 receptor chain: T1 receptor chain with A17K, P44A
Protocol: as §1, §2, §3

G89A = target: T7, G89A
T7 construct: also called hCD27 G89A
T7 receptor chain: T1 receptor chain with A17K, G89A
Protocol: as §1, §2, §3

E9A = target: T8, E9A
T8 construct: also called hCD27 E9A
T8 receptor chain: T1 receptor chain with E9A, A17K
Protocol: as §1, §2, §3

S63A = target: T9, S63A
T9 construct: also called hCD27 S63A
T9 receptor chain: T1 receptor chain with A17K, S63A
Protocol: as §1, §2, §3

N88A = target: T10, N88A
T10 construct: also called hCD27 N88A
T10 receptor chain: T1 receptor chain with A17K, N88A
Protocol: as §1, §2, §3

- binding, WT hCD27 = 100 (GM FITC) (K17A): 103%
- binding, WT hCD27 = 100 (GM FITC) (R10A): 103%
- binding, WT hCD27 = 100 (GM FITC) (H60A): 178%
- binding, WT hCD27 = 100 (GM FITC) (Q91A): 148%
- binding, WT hCD27 = 100 (GM FITC) (Q15A): 99.6%
- binding, WT hCD27 = 100 (GM FITC) (P44A): 158%
- binding, WT hCD27 = 100 (GM FITC) (G89A): 113%
- binding, WT hCD27 = 100 (GM FITC) (E9A): 96.7%
- binding, WT hCD27 = 100 (GM FITC) (S63A): 162%
- binding, WT hCD27 = 100 (GM FITC) (N88A): 162%
B1: hCD27.131A (mouse parental 131A) (antibody, mouse IgG1, V domains shown)
VH: QIQLVQSGPELKKPGETVKISCKASGYTFTNYGMNWVKQAPGKGLKWMGWINTNTGEPTYAEEFKGRFAFSLETSATTAYLQINNLKNEDTATYFCAREGDAMDYWGQGTSVTVSS
VL: QIVLTQSPAIMSASPGEKVTMTCSASSSVSYMHWYQQKSGTSPKRWIYDTSKLASGVPARFSGSGSGTSYSLTISSMEAEDAATYYCQQWNSYPFTFGSGTKLEIK
notes: Mouse IgG1 antibody; also called mouse hCD27.131A
